Consider three molecules from patent publication US20230357348A1 (AstraZeneca / MedImmune, published 2023).

For this experiment, the target named is human GLP-1 receptor (hGLP-1R) (human, UniProt P43220 24-463). Nature of the experiment: cell-based or functional assay.

Starred links: 1 amine or outer side, 2 acyl side, 3 side chain; linkers in the order of their positions; H or OH if unused. Non-standard residues stand in square brackets, D forms with d. Groups on a side chain read outwards from the residue. No end group written: not given here. *: point of attachment. C18 diacid = O=C(O)CCCCCCCCCCCCCCCCC(=O)*; γGlu = O=C(O)[C@H](CCC(=O)[*:2])N[*:1]; αMeF = C[C@](N)(Cc1ccccc1)C(=O)O; AEEA = NCCOCCOCC(=O)O; Aib = CC(C)(N)C(=O)O

B1: Peptide 463 (peptide)
peptide: H[Aib]QGTFTSDVSK[αMeF]LDSK([AEEA-AEEA-γGlu-γGlu-C18 diacid])RAQDFVQWLL[Aib]T-NH2
modifications: N-terminus assumed
SMILES: CC(C)C[C@H](NC(=O)[C@H](Cc1c[nH]c2ccccc12)NC(=O)[C@H](CCC(N)=O)NC(=O)[C@@H](NC(=O)[C@H](Cc1ccccc1)NC(=O)[C@H](CC(=O)O)NC(=O)[C@H](CCC(N)=O)NC(=O)[C@H](C)NC(=O)[C@H](CCCNC(=N)N)NC(=O)[C@H](CCCCNC(=O)COCCOCCNC(=O)COCCOCCNC(=O)CC[C@H](NC(=O)CC[C@H](NC(=O)CCCCCCCCCCCCCCCCC(=O)O)C(=O)O)C(=O)O)NC(=O)[C@H](CO)NC(=O)[C@H](CC(=O)O)NC(=O)[C@H](CC(C)C)NC(=O)[C@](C)(Cc1ccccc1)NC(=O)[C@H](CCCCN)NC(=O)[C@H](CO)NC(=O)[C@@H](NC(=O)[C@H](CC(=O)O)NC(=O)[C@H](CO)NC(=O)[C@@H](NC(=O)[C@H](Cc1ccccc1)NC(=O)[C@@H](NC(=O)CNC(=O)[C@H](CCC(N)=O)NC(=O)C(C)(C)NC(=O)[C@@H](N)Cc1c[nH]cn1)[C@@H](C)O)[C@@H](C)O)C(C)C)C(C)C)C(=O)N[C@@H](CC(C)C)C(=O)NC(C)(C)C(=O)N[C@H](C(N)=O)[C@@H](C)O
With B1, the “hGLP-1R EC50 (pM)” value is 274 pM.

B2: Peptide 461 (peptide)
peptide: H[Aib]QGTFTSDVSK[αMeF]LDRK([AEEA-AEEA-γGlu-C18 diacid])RAQDFVRWLLAE-NH2
modifications: N-terminus assumed
SMILES: CC(C)C[C@H](NC(=O)[C@H](CC(C)C)NC(=O)[C@H](Cc1c[nH]c2ccccc12)NC(=O)[C@H](CCCNC(=N)N)NC(=O)[C@@H](NC(=O)[C@H](Cc1ccccc1)NC(=O)[C@H](CC(=O)O)NC(=O)[C@H](CCC(N)=O)NC(=O)[C@H](C)NC(=O)[C@H](CCCNC(=N)N)NC(=O)[C@H](CCCCNC(=O)COCCOCCNC(=O)COCCOCCNC(=O)CC[C@H](NC(=O)CCCCCCCCCCCCCCCCC(=O)O)C(=O)O)NC(=O)[C@H](CCCNC(=N)N)NC(=O)[C@H](CC(=O)O)NC(=O)[C@H](CC(C)C)NC(=O)[C@](C)(Cc1ccccc1)NC(=O)[C@H](CCCCN)NC(=O)[C@H](CO)NC(=O)[C@@H](NC(=O)[C@H](CC(=O)O)NC(=O)[C@H](CO)NC(=O)[C@@H](NC(=O)[C@H](Cc1ccccc1)NC(=O)[C@@H](NC(=O)CNC(=O)[C@H](CCC(N)=O)NC(=O)C(C)(C)NC(=O)[C@@H](N)Cc1c[nH]cn1)[C@@H](C)O)[C@@H](C)O)C(C)C)C(C)C)C(=O)N[C@@H](C)C(=O)N[C@@H](CCC(=O)O)C(N)=O
Consider B2, for which the “hGLP-1R EC50 (pM)” value is 167 pM.

B3: Peptide 140 (peptide)
peptide: H[Aib]QGTFTSDVSK[αMeF]LDTK([AEEA-AEEA-γGlu-C18 diacid])RAQDFVRWLLE[Aib]G-OH
modifications: N-terminus assumed
SMILES: CC(C)C[C@H](NC(=O)[C@H](Cc1c[nH]c2ccccc12)NC(=O)[C@H](CCCNC(=N)N)NC(=O)[C@@H](NC(=O)[C@H](Cc1ccccc1)NC(=O)[C@H](CC(=O)O)NC(=O)[C@H](CCC(N)=O)NC(=O)[C@H](C)NC(=O)[C@H](CCCNC(=N)N)NC(=O)[C@H](CCCCNC(=O)COCCOCCNC(=O)COCCOCCNC(=O)CC[C@H](NC(=O)CCCCCCCCCCCCCCCCC(=O)O)C(=O)O)NC(=O)[C@@H](NC(=O)[C@H](CC(=O)O)NC(=O)[C@H](CC(C)C)NC(=O)[C@](C)(Cc1ccccc1)NC(=O)[C@H](CCCCN)NC(=O)[C@H](CO)NC(=O)[C@@H](NC(=O)[C@H](CC(=O)O)NC(=O)[C@H](CO)NC(=O)[C@@H](NC(=O)[C@H](Cc1ccccc1)NC(=O)[C@@H](NC(=O)CNC(=O)[C@H](CCC(N)=O)NC(=O)C(C)(C)NC(=O)[C@@H](N)Cc1c[nH]cn1)[C@@H](C)O)[C@@H](C)O)C(C)C)[C@@H](C)O)C(C)C)C(=O)N[C@@H](CC(C)C)C(=O)N[C@@H](CCC(=O)O)C(=O)NC(C)(C)C(=O)NCC(=O)O
In the case of B3, the “hGLP-1R EC50 (pM)” value stood at 22.7 pM.
